Results reported in publication PMC11078399.

Target: T1, Fzo1 (yeast mitofusin), wild type (S. cerevisiae) (UniProt P38297)
T1 sequence: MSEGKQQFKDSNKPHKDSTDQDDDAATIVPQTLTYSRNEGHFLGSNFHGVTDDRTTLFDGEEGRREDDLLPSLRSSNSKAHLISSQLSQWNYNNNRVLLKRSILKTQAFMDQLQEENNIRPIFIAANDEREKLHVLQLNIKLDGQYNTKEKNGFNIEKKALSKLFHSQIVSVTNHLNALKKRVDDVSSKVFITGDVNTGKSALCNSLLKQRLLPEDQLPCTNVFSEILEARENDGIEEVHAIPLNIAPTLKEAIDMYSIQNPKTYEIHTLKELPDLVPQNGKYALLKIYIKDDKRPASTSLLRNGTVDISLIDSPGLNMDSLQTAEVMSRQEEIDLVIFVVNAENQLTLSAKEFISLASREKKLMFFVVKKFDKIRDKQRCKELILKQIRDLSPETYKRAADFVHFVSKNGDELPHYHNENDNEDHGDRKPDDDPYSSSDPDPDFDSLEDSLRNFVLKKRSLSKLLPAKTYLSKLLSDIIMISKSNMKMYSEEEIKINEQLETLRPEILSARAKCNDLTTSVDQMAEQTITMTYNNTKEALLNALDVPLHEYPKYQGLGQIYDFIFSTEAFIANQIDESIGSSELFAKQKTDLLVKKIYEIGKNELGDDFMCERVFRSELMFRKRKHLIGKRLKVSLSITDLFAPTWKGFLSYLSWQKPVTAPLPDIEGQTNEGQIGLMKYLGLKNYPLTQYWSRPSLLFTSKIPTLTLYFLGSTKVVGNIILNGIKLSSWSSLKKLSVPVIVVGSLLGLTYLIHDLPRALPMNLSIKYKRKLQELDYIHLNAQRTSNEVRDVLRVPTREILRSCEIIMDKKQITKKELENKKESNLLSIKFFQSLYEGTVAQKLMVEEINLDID

ex vivo PerMit contact assay with mitochondria from pex34Δ cells: decrease of specific mitochondrial attachment to peroxisome beads with FZO1 S201N against WT FZO1 mitochondria: 17%
B1: Fzo1 S201N (GTPase domain mutant) (natural protein)
chain: MSEGKQQFKDSNKPHKDSTDQDDDAATIVPQTLTYSRNEGHFLGSNFHGVTDDRTTLFDGEEGRREDDLLPSLRSSNSKAHLISSQLSQWNYNNNRVLLKRSILKTQAFMDQLQEENNIRPIFIAANDEREKLHVLQLNIKLDGQYNTKEKNGFNIEKKALSKLFHSQIVSVTNHLNALKKRVDDVSSKVFITGDVNTGKNALCNSLLKQRLLPEDQLPCTNVFSEILEARENDGIEEVHAIPLNIAPTLKEAIDMYSIQNPKTYEIHTLKELPDLVPQNGKYALLKIYIKDDKRPASTSLLRNGTVDISLIDSPGLNMDSLQTAEVMSRQEEIDLVIFVVNAENQLTLSAKEFISLASREKKLMFFVVKKFDKIRDKQRCKELILKQIRDLSPETYKRAADFVHFVSKNGDELPHYHNENDNEDHGDRKPDDDPYSSSDPDPDFDSLEDSLRNFVLKKRSLSKLLPAKTYLSKLLSDIIMISKSNMKMYSEEEIKINEQLETLRPEILSARAKCNDLTTSVDQMAEQTITMTYNNTKEALLNALDVPLHEYPKYQGLGQIYDFIFSTEAFIANQIDESIGSSELFAKQKTDLLVKKIYEIGKNELGDDFMCERVFRSELMFRKRKHLIGKRLKVSLSITDLFAPTWKGFLSYLSWQKPVTAPLPDIEGQTNEGQIGLMKYLGLKNYPLTQYWSRPSLLFTSKIPTLTLYFLGSTKVVGNIILNGIKLSSWSSLKKLSVPVIVVGSLLGLTYLIHDLPRALPMNLSIKYKRKLQELDYIHLNAQRTSNEVRDVLRVPTREILRSCEIIMDKKQITKKELENKKESNLLSIKFFQSLYEGTVAQKLMVEEINLDID
